# Source: publication PMC2673096
# Molecular target: FLAG-HA-HA (F2H)-tagged tbRAP1 at its endogenous locus (Trypanosoma brucei (endogenous locus in T. brucei cells))
# Assay: co-IP
substance,measurement,value
endogenous tbTRF (natural protein),percent co-immunoprecipitated,10%
